Holding throughout (format): biochemical
A short description of data set [1]: ATPase activity assay ([γ-32P]ATP hydrolysis, TLC), steady-state kinetics. The following applies: for Intrinsic ability to hydrolyze ATP: absence of nucleic acid; for Stimulation of ATPase activity by nucleic acids: presence of both NA (RNA, DNA). As for the experimental part: (§1) The ATPase activity was determined, as previously described, by directly monitoring [γ-^32P] ATP hydrolysis by thin-layer chromatography (TLC). ATP (3000 Ci/mmol) as tracer, plus 1 mM of cold ATP, unless otherwise stated, and nucleic acids as indicated. Samples were incubated for 5 minutes at 25°C and dotted onto TLC sheets of polyethylenimine cellulose. The products were separated by ascending chromatography with 0.5 M KH2PO4 (pH 3.4). The intensities of the radioactive bands corresponding to ATP and Pi were quantified by densitometric scanning with PhosphoImager. For the stimulation of the ATPase activity, the ssDNA oligonucleotide oligo(dT)20 or the ssRNA oligonucleotide oligo (rU)20 were used. Time-course experiments were performed under the conditions described above. Samples were taken at different time points and processed as described above.
ATPase reactions were performed as described, in the presence of increasing amounts of nucleic acids and variable ATP concentrations. […] The relative -fold increase in the ATPase velocities 1−(vDNA/v) as a function of the nucleic acid concentrations was fitted to the hyperbolic relationship: [drawing 2] (2) where vNA is the apparent velocity of the reaction in the presence of nucleic acid, v is the velocity in its absence, KD is the apparent affinity for the nucleic acid and [NA] is the concentration of the nucleic acid substrate. The symbol KD is used, instead of Km, solely to reflect the fact that the NA is not a reactant (i.e. it is not converted into products) but only a cofactor of the reaction, without implying any assumption on the nature of the microscopic rates contributing to the KD value itself.

The subject of data set [2] is partially dsDNA substrates (18/38-mer). Briefly: DNA helicase assay. The following applies: for DNA helicase activity: data not shown. The source says:
(§2) The helicase activity of DDX3wt and mutant forms was monitored by measuring the conversion of a double stranded (ds) DNA or RNA (labelled at the 5′-end of one strand with a 6-FAM fluorescent group) into single stranded (ss) nucleic acid. For the RNA helicase assay, a 18/36mer ds RNA oligonucleotide with both 3′ and 5′-protruding ss ends was used. For the DNA helicase assay, three different dsDNA substrates were used, all of them composed of the same 18mer oligonucleotide 5′-FAM labelled and three different 38 mer oligonucleotides with the sequence complementary to the 18 mer at different positions. Annealing of the 18 mer to each of the 38 mer generated the different DNA substrates shown in Fig. 5 A. A final concentration of 20 nM RNA or DNA substrate was used in the experiments, unless otherwise stated. The amounts of the different DDX3 proteins are indicated in the respective Figures.
Reactions were performed in 50 mM TrisHCl pH 7.5, 1 mM DTT, 0.2 mg/ml BSA, 5% glycerol and 1 mM ATP, 10 mM MgCl2 at 37°C degrees for 10′ and stopped by adding EDTA 50 mM pH 8. Products were separated on a native 7% PAGE […] at 5 W in TBE buffer with 0.1% SDS at 4°C for 2 hours for RNA substrates, 4 hours for DNA substrates. Substrates and products were quantified by laser scanning densitometry (Thyphoon-TRIO, GE Healthcare). For trap-assays, the enzyme and the RNA substrate were incubated on ice for 4 min, in the absence of ATP. Reactions were started by addition of ATP and a 50-fold molar excess (1 µM) of r(A)40 trap RNA oligonucleotide, followed by incubation at 37°C for the indicated times.

Data set [3] is described as follows: ATPase time-course (burst kinetics). As for the experimental part:
as §1
Variation of the ATPase reaction as a function of time was fitted to the mixed-exponential equation: [drawing 3] (3) where [P] is the concentration of products (pmols) at any given time point, t is time, Aburst is the burst amplitude, k burst is the rate of the exponential phase, k ss is the rate of the steady-state linear phase.

Data set [4] deals with 18/36mer ds RNA oligonucleotide. Kind of data set: RNA helicase assay. The settings on record: data not shown.
From the text: as §2
Reactions were performed in 50 mM TrisHCl pH 7.5, 1 mM DTT, 0.2 mg/ml BSA, 5% glycerol and 1 mM ATP, 10 mM MgCl2 at 37°C degrees for 10′ and stopped by adding EDTA 50 mM pH 8. Products were separated on a native 7% PAGE […] at 5 W in TBE buffer with 0.1% SDS at 4°C for 2 hours for RNA substrates, 4 hours for DNA substrates. Substrates and products were quantified by laser scanning densitometry (Thyphoon-TRIO, GE Healthcare). […]

[5] abbreviates: relative to absence of nucleic acid.

Experimental findings from article PMC3093405, “A Motif Unique to the Human Dead-Box Protein DDX3 Is Important for Nucleic Acid Binding, ATP Hydrolysis, RNA/DNA Unwinding and HIV-1 Replication” (PLoS ONE, 2011) are described below.

B1: DDX1: full length human DEAD-box protein DDX1, recombinant, largest known insertion between motifs I and Ia (protein, UniProt Q92499 1-740, looked up)
chain: MAAFSEMGVMPEIAQAVEEMDWLLPTDIQAESIPLILGGGDVLMAAETGSGKTGAFSIPVIQIVYETLKDQQEGKKGKTTIKTGASVLNKWQMNPYDRGSAFAIGSDGLCCQSREVKEWHGCRATKGLMKGKHYYEVSCHDQGLCRVGWSTMQASLDLGTDKFGFGFGGTGKKSHNKQFDNYGEEFTMHDTIGCYLDIDKGHVKFSKNGKDLGLAFEIPPHMKNQALFPACVLKNAELKFNFGEEEFKFPPKDGFVALSKAPDGYIVKSQHSGNAQVTQTKFLPNAPKALIVEPSRELAEQTLNNIKQFKKYIDNPKLRELLIIGGVAARDQLSVLENGVDIVVGTPGRLDDLVSTGKLNLSQVRFLVLDEADGLLSQGYSDFINRMHNQIPQVTSDGKRLQVIVCSATLHSFDVKKLSEKIMHFPTWVDLKGEDSVPDTVHHVVVPVNPKTDRLWERLGKSHIRTDDVHAKDNTRPGANSPEMWSEAIKILKGEYAVRAIKEHKMDQAIIFCRTKIDCDNLEQYFIQQGGGPDKKGHQFSCVCLHGDRKPHERKQNLERFKKGDVRFLICTDVAARGIDIHGVPYVINVTLPDEKQNYVHRIGRVGRAERMGLAISLVATEKEKVWYHVCSSRGKGCYNTRLKEDGGCTIWYNEMQLLSEIEEHLNCTISQVEPDIKVPVDEFDGKVTYGQKRAAGGGSYKGHVDILAPTVQELAALEKEAQTSFLHLGYLPNQLFRTF
modifications: full-length
notes: full length human DEAD-box protein DDX1, recombinant, largest known insertion between motifs I and Ia
Regarding B1, the k cat was 0.035 ± 0.005 s⁻¹ in data set [1] (+DNA, oligo(dT)20); 0.0633 ± 0.0083 s⁻¹ in data set [1] (+RNA, oligo(rU)20); 0.0317 ± 0.005 s⁻¹ in data set [1] (absence of nucleic acids). The “Increase of catalytic efficiency (kcat/Km) by DNA” value in data set [1] (setting [5]) stood at 1.3 fold. The “Increase of catalytic efficiency (kcat/Km) by RNA” value in data set [1] (setting [5]) is recorded as 2.6 fold. The DNA unwinding entry in data set [2] (DNA duplex with both 5′- and 3′-protruding ssDNA ends, 18/[5′-3′]-38 mer) is recorded as “did not display DNA unwinding capability”.

B2: N-DDX3: DDX3 mutant lacking the C-terminus (Δ428–662), aa 1–427, entire subdomain 1 plus linker (protein, UniProt O00571 1-427, looked up, fragment)
chain: MSHVAVENALGLDQQFAGLDLNSSDNQSGGSTASKGRYIPPHLRNREATKGFYDKDSSGWSSSKDKDAYSSFGSRSDSRGKSSFFSDRGSGSRGRFDDRGRSDYDGIGSRGDRSGFGKFERGGNSRWCDKSDEDDWSKPLPPSERLEQELFSGGNTGINFEKYDDIPVEATGNNCPPHIESFSDVEMGEIIMGNIELTRYTRPTPVQKHAIPIIKEKRDLMACAQTGSGKTAAFLLPILSQIYSDGPGEALRAMKENGRYGRRKQYPISLVLAPTRELAVQIYEEARKFSYRSRVRPCVVYGGADIGQQIRDLERGCHLLVATPGRLVDMMERGKIGLDFCKYLVLDEADRMLDMGFEPQIRRIVEQDTMPPKGVRHTMMFSATFPKEIQMLARDFLDEYIFLAVGRVGSTSENITQKVVWVEESDK
On to B2, for which the k cat in data set [1] (+DNA, oligo(dT)20) turned out to be 0.0183 ± 0.0083 s⁻¹; in data set [1] (+RNA, oligo(rU)20) it was 0.0163 ± 0.0005 s⁻¹; in data set [1] (absence of nucleic acids), 0.013 ± 0.005 s⁻¹. Also, the “Intrinsic ability to hydrolyze ATP” value in data set [1] is “low but detectable ATPase activity”. Further, in data set [1], the “Stimulation of ATPase activity by nucleic acids” value is “no stimulation”. In addition, the Aburst came to 0.12 ± 0.01 µM in data set [3] (+DNA, oligo(dT)20); 0.13 ± 0.01 µM in data set [3] (+RNA, oligo(rU)20); 0.12 ± 0.02 µM in data set [3] (absence of nucleic acids). Besides, the k burst in data set [3] (+DNA, oligo(dT)20) was found to be 0.5 ± 0.5 min⁻¹; in data set [3] (+RNA, oligo(rU)20) it was 0.5 ± 0.5 min⁻¹; in data set [3] (absence of nucleic acids) it was 1 ± 0.5 min⁻¹. Further, the k ss came to 0.33 ± 0.05 min⁻¹ in data set [3] (+DNA, oligo(dT)20); 0.35 ± 0.06 min⁻¹ in data set [3] (+RNA, oligo(rU)20); 0.4 ± 0.05 min⁻¹ in data set [3] (absence of nucleic acids). Besides, in data set [4], the RNA helicase activity result is on record as “did not show helicase activity”. Further, the DNA helicase activity entry in data set [2] was “inactive”.

B3: I-DDX3: double deletion DDX3 mutant (Δ1–159/Δ428–662), aa 160–427, helicase core of subdomain 1 (protein, UniProt O00571 160-427, looked up, fragment)
chain: FEKYDDIPVEATGNNCPPHIESFSDVEMGEIIMGNIELTRYTRPTPVQKHAIPIIKEKRDLMACAQTGSGKTAAFLLPILSQIYSDGPGEALRAMKENGRYGRRKQYPISLVLAPTRELAVQIYEEARKFSYRSRVRPCVVYGGADIGQQIRDLERGCHLLVATPGRLVDMMERGKIGLDFCKYLVLDEADRMLDMGFEPQIRRIVEQDTMPPKGVRHTMMFSATFPKEIQMLARDFLDEYIFLAVGRVGSTSENITQKVVWVEESDK
For B3, the k cat came out at 0.0233 ± 0.0067 s⁻¹ in data set [1] (+DNA, oligo(dT)20); 0.0267 ± 0.0083 s⁻¹ in data set [1] (+RNA, oligo(rU)20); 0.0183 ± 0.0033 s⁻¹ in data set [1] (absence of nucleic acids). For the same molecule, the “Intrinsic ability to hydrolyze ATP” value in data set [1] is “low but detectable ATPase activity”. In addition, the “Stimulation of ATPase activity by nucleic acids” value in data set [1] is given as “no stimulation”. Moreover, the Aburst came out at 0.15 ± 0.02 µM in data set [3] (+DNA, oligo(dT)20); 0.11 ± 0.03 µM in data set [3] (+RNA, oligo(rU)20); 0.12 ± 0.02 µM in data set [3] (absence of nucleic acids). Besides, the k burst in data set [3] (+DNA, oligo(dT)20) came to 0.4 ± 0.6 min⁻¹; in data set [3] (+RNA, oligo(rU)20), 0.4 ± 0.5 min⁻¹; in data set [3] (absence of nucleic acids) it was 0.3 ± 0.4 min⁻¹. The k ss in data set [3] (+DNA, oligo(dT)20) was found to be 0.3 ± 0.05 min⁻¹; in data set [3] (+RNA, oligo(rU)20) it was 0.4 ± 0.04 min⁻¹; in data set [3] (absence of nucleic acids), 0.3 ± 0.05 min⁻¹. For the same molecule, the RNA helicase activity entry in data set [4] is reported as “did not show helicase activity”. For the same molecule, the DNA helicase activity entry in data set [2] is “inactive”.
